These sequences were tested against SHP2-C SH2 (assay: SH2 binding enrichment of the phosphorylated peptide, bacterial display (enrichment ratio); higher = better substrate or ligand; peptides without Tyr show the background).
Work on TFEFRYLEDRD [CNOT3_Y746_YF] yielded an SH2 binding enrichment of 0.96. In the case of RWHEGYRQTPK [CD44_Y412], the SH2 binding enrichment is reported as 1.73. YPKVRYHWLVL [APTX_Y214_A212V] was tested, and the SH2 binding enrichment was 1.17. DTKPVYQNLRQ [BOD1_Y82_A81V] gave an SH2 binding enrichment of 1.65. DTQNSYWCATS [TSC1_Y304_G305W] showed an SH2 binding enrichment of 0.849. Work on GLDGSYLLRDS [SH2D1A_Y29] yielded an SH2 binding enrichment of 0.636. Sequence ESVNTYLQTSP [NAT1_Y208_M205V] has an SH2 binding enrichment of 0.527. With PSAEGYQDVRD [ABLIM1_Y439] the SH2 binding enrichment was 0.621. MSSHHCDFKKF [ZNF445_Y428_Y428C_YF] showed an SH2 binding enrichment of 0.759. Sequence NLTVNYKKNLI [SQOR_Y259] has an SH2 binding enrichment of 0.61. SPPEVYAIMRG [NTRK1_Y757_C752S] was tested, and the SH2 binding enrichment was 1.16. EVEFQYPFRLH [SYP_Y73_E72Q] showed an SH2 binding enrichment of 0.462. For FHKALYTVRSY [PDE6C_Y266], the SH2 binding enrichment was 0.87. DLQDEYDFKRK [STAT1_Y170_C174R] gave an SH2 binding enrichment of 0.682. For IVTLKYPIEHG [ACTB_Y69_L65V], the SH2 binding enrichment was 0.807. In the case of EILLSYPRTGF [TGM1_Y365_L366P_YF], the SH2 binding enrichment is reported as 0.83. EIASHYRHLLR [ZBTB46_Y14_T11A] gave an SH2 binding enrichment of 0.794. DRLASYLDKVR [KRT10_Y160] gave an SH2 binding enrichment of 0.626. Sequence LLSVAYQNVVG [YWHAG_Y49_K50Q] has an SH2 binding enrichment of 2.77. MALDIYRASYY [ALK_Y1278_R1275L] gave an SH2 binding enrichment of 0.9. KIIRWYVSSEG [ANK2_Y3907_R3906W] was tested, and the SH2 binding enrichment was 1.51. LEAVSYSSPFA [RNLS_Y190_R193P_YF] was tested, and the SH2 binding enrichment was 3.49. Sequence AAVDTVCRHNF [HLA-DRB1_Y107_Y107V_YF] has an SH2 binding enrichment of 0.479. In the case of RRIHSYRGYLW [VHL_Y112_H115Y], the SH2 binding enrichment is reported as 0.534. LLDGEYFTLQI [TP53_Y327_P322L] showed an SH2 binding enrichment of 0.462. Sequence RVNSAYQDKVS [ACAN_Y100] has an SH2 binding enrichment of 0.679. LGGAMYFLEAE [PKHD1_Y452_YF] was tested, and the SH2 binding enrichment was 0.75. NPSFNYEIVNR [DYNC1H1_Y3379_YF] gave an SH2 binding enrichment of 0.753. Sequence HFEFKYVINAI [MAOA_Y268_C266F_YF] has an SH2 binding enrichment of 0.772. QDGYSYLSRQM [LDLR_Y847_P848L] gave an SH2 binding enrichment of 2.11. TEQDPYNSIVR [MMUT_Y364_N366S] showed an SH2 binding enrichment of 0.711. In the case of YTHSDYQYGQR [PKP2_Y166_S169G], the SH2 binding enrichment is reported as 0.885. Sequence LITILYIGFLG [KCNQ1_Y267_T265I] has an SH2 binding enrichment of 1.26.

The sequences below were run against c-Src SH2 in the same assay as above.
Work on TFEFRYLEDRD [CNOT3_Y746_YF] yielded an SH2 binding enrichment of 0.584. RWHEGYRQTPK [CD44_Y412] was tested, and the SH2 binding enrichment was 0.898. For YPKVRYHWLVL [APTX_Y214_A212V], the SH2 binding enrichment was 0.756. In the case of DTKPVYQNLRQ [BOD1_Y82_A81V], the SH2 binding enrichment is reported as 3.29. Work on DTQNSYWCATS [TSC1_Y304_G305W] yielded an SH2 binding enrichment of 0.884. Work on GLDGSYLLRDS [SH2D1A_Y29] yielded an SH2 binding enrichment of 0.42. ESVNTYLQTSP [NAT1_Y208_M205V] showed an SH2 binding enrichment of 0.395. Sequence PSAEGYQDVRD [ABLIM1_Y439] has an SH2 binding enrichment of 3.8. MSSHHCDFKKF [ZNF445_Y428_Y428C_YF] gave an SH2 binding enrichment of 0.449. NLTVNYKKNLI [SQOR_Y259] showed an SH2 binding enrichment of 0.456. SPPEVYAIMRG [NTRK1_Y757_C752S] gave an SH2 binding enrichment of 0.611. EVEFQYPFRLH [SYP_Y73_E72Q] was tested, and the SH2 binding enrichment was 0.489. FHKALYTVRSY [PDE6C_Y266] was tested, and the SH2 binding enrichment was 0.456. With DLQDEYDFKRK [STAT1_Y170_C174R] the SH2 binding enrichment was 0.505. IVTLKYPIEHG [ACTB_Y69_L65V] gave an SH2 binding enrichment of 0.45. Sequence EILLSYPRTGF [TGM1_Y365_L366P_YF] has an SH2 binding enrichment of 0.528. In the case of EIASHYRHLLR [ZBTB46_Y14_T11A], the SH2 binding enrichment is reported as 0.522. With DRLASYLDKVR [KRT10_Y160] the SH2 binding enrichment was 0.507. LLSVAYQNVVG [YWHAG_Y49_K50Q] was tested, and the SH2 binding enrichment was 2.53. Sequence MALDIYRASYY [ALK_Y1278_R1275L] has an SH2 binding enrichment of 1.19. Sequence KIIRWYVSSEG [ANK2_Y3907_R3906W] has an SH2 binding enrichment of 1.18. In the case of LEAVSYSSPFA [RNLS_Y190_R193P_YF], the SH2 binding enrichment is reported as 1.26. AAVDTVCRHNF [HLA-DRB1_Y107_Y107V_YF] showed an SH2 binding enrichment of 0.529. RRIHSYRGYLW [VHL_Y112_H115Y] showed an SH2 binding enrichment of 0.53. Sequence LLDGEYFTLQI [TP53_Y327_P322L] has an SH2 binding enrichment of 0.6. With RVNSAYQDKVS [ACAN_Y100] the SH2 binding enrichment was 0.455. LGGAMYFLEAE [PKHD1_Y452_YF] was tested, and the SH2 binding enrichment was 0.802. In the case of NPSFNYEIVNR [DYNC1H1_Y3379_YF], the SH2 binding enrichment is reported as 0.574. HFEFKYVINAI [MAOA_Y268_C266F_YF] showed an SH2 binding enrichment of 0.561. For QDGYSYLSRQM [LDLR_Y847_P848L], the SH2 binding enrichment was 8.2. TEQDPYNSIVR [MMUT_Y364_N366S] was tested, and the SH2 binding enrichment was 1.48. Work on YTHSDYQYGQR [PKP2_Y166_S169G] yielded an SH2 binding enrichment of 0.692. LITILYIGFLG [KCNQ1_Y267_T265I] was tested, and the SH2 binding enrichment was 0.845.

Each sequence was assayed against Grb2 SH2 (UniProt P62993) in the same assay as above.
Chain of Grb2 SH2 (P62993 whole entry, looked up): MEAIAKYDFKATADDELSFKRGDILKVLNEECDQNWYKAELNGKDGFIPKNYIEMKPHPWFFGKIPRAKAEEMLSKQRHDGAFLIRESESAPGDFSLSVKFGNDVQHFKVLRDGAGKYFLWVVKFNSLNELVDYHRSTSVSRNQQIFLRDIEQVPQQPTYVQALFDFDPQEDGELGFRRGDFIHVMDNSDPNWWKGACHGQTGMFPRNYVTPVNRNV
For TFEFRYLEDRD [CNOT3_Y746_YF], the SH2 binding enrichment was 1.08. RWHEGYRQTPK [CD44_Y412] was tested, and the SH2 binding enrichment was 1.47. YPKVRYHWLVL [APTX_Y214_A212V] was tested, and the SH2 binding enrichment was 1.05. In the case of DTKPVYQNLRQ [BOD1_Y82_A81V], the SH2 binding enrichment is reported as 20.8. Work on DTQNSYWCATS [TSC1_Y304_G305W] yielded an SH2 binding enrichment of 1.01. GLDGSYLLRDS [SH2D1A_Y29] was tested, and the SH2 binding enrichment was 0.756. With ESVNTYLQTSP [NAT1_Y208_M205V] the SH2 binding enrichment was 0.762. PSAEGYQDVRD [ABLIM1_Y439] was tested, and the SH2 binding enrichment was 0.812. Work on MSSHHCDFKKF [ZNF445_Y428_Y428C_YF] yielded an SH2 binding enrichment of 0.811. NLTVNYKKNLI [SQOR_Y259] was tested, and the SH2 binding enrichment was 0.916. Sequence SPPEVYAIMRG [NTRK1_Y757_C752S] has an SH2 binding enrichment of 0.711. EVEFQYPFRLH [SYP_Y73_E72Q] gave an SH2 binding enrichment of 0.913. For FHKALYTVRSY [PDE6C_Y266], the SH2 binding enrichment was 0.814. DLQDEYDFKRK [STAT1_Y170_C174R] gave an SH2 binding enrichment of 0.902. In the case of IVTLKYPIEHG [ACTB_Y69_L65V], the SH2 binding enrichment is reported as 0.77. EILLSYPRTGF [TGM1_Y365_L366P_YF] was tested, and the SH2 binding enrichment was 0.821. For EIASHYRHLLR [ZBTB46_Y14_T11A], the SH2 binding enrichment was 0.759. For DRLASYLDKVR [KRT10_Y160], the SH2 binding enrichment was 0.848. LLSVAYQNVVG [YWHAG_Y49_K50Q] gave an SH2 binding enrichment of 21.1. In the case of MALDIYRASYY [ALK_Y1278_R1275L], the SH2 binding enrichment is reported as 1.15. For KIIRWYVSSEG [ANK2_Y3907_R3906W], the SH2 binding enrichment was 1.19. Work on LEAVSYSSPFA [RNLS_Y190_R193P_YF] yielded an SH2 binding enrichment of 0.911. In the case of AAVDTVCRHNF [HLA-DRB1_Y107_Y107V_YF], the SH2 binding enrichment is reported as 0.888. In the case of RRIHSYRGYLW [VHL_Y112_H115Y], the SH2 binding enrichment is reported as 0.902. Sequence LLDGEYFTLQI [TP53_Y327_P322L] has an SH2 binding enrichment of 1.08. Work on RVNSAYQDKVS [ACAN_Y100] yielded an SH2 binding enrichment of 0.784. In the case of LGGAMYFLEAE [PKHD1_Y452_YF], the SH2 binding enrichment is reported as 0.868. NPSFNYEIVNR [DYNC1H1_Y3379_YF] was tested, and the SH2 binding enrichment was 0.825. With HFEFKYVINAI [MAOA_Y268_C266F_YF] the SH2 binding enrichment was 0.814. In the case of QDGYSYLSRQM [LDLR_Y847_P848L], the SH2 binding enrichment is reported as 0.747. With TEQDPYNSIVR [MMUT_Y364_N366S] the SH2 binding enrichment was 0.952. YTHSDYQYGQR [PKP2_Y166_S169G] was tested, and the SH2 binding enrichment was 0.712. LITILYIGFLG [KCNQ1_Y267_T265I] was tested, and the SH2 binding enrichment was 0.879.

These sequences were tested against Fyn (UniProt P06241) (assay: phosphorylation enrichment, bacterial display (enrichment ratio); higher = better substrate or ligand; peptides without Tyr show the background).
Chain of Fyn (P06241 whole entry, looked up): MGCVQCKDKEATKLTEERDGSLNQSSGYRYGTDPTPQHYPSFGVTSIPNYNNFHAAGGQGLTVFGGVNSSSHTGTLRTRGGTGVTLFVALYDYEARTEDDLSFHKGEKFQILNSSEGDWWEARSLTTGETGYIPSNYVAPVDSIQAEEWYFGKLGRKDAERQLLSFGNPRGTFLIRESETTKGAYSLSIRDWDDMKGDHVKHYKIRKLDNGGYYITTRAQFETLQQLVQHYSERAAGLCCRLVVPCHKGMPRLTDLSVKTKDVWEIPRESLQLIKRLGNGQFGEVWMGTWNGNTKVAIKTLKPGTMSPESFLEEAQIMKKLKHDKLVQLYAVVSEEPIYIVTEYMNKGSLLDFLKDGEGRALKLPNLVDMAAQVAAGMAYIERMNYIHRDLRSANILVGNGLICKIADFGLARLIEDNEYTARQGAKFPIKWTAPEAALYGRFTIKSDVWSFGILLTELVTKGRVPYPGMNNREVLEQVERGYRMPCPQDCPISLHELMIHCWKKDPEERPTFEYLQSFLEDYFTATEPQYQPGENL
TFEFRYLEDRD [CNOT3_Y746_YF] gave a phosphorylation enrichment of 0.686. In the case of RWHEGYRQTPK [CD44_Y412], the phosphorylation enrichment is reported as 0.418. With YPKVRYHWLVL [APTX_Y214_A212V] the phosphorylation enrichment was 0.531. With DTKPVYQNLRQ [BOD1_Y82_A81V] the phosphorylation enrichment was 1.07. Work on DTQNSYWCATS [TSC1_Y304_G305W] yielded a phosphorylation enrichment of 0.485. Sequence GLDGSYLLRDS [SH2D1A_Y29] has a phosphorylation enrichment of 0.413. Sequence ESVNTYLQTSP [NAT1_Y208_M205V] has a phosphorylation enrichment of 0.441. PSAEGYQDVRD [ABLIM1_Y439] was tested, and the phosphorylation enrichment was 0.689. MSSHHCDFKKF [ZNF445_Y428_Y428C_YF] gave a phosphorylation enrichment of 0.392. In the case of NLTVNYKKNLI [SQOR_Y259], the phosphorylation enrichment is reported as 0.351. SPPEVYAIMRG [NTRK1_Y757_C752S] showed a phosphorylation enrichment of 1.63. Sequence EVEFQYPFRLH [SYP_Y73_E72Q] has a phosphorylation enrichment of 0.445. For FHKALYTVRSY [PDE6C_Y266], the phosphorylation enrichment was 0.515. Sequence DLQDEYDFKRK [STAT1_Y170_C174R] has a phosphorylation enrichment of 0.465. IVTLKYPIEHG [ACTB_Y69_L65V] showed a phosphorylation enrichment of 0.483. In the case of EILLSYPRTGF [TGM1_Y365_L366P_YF], the phosphorylation enrichment is reported as 0.541. For EIASHYRHLLR [ZBTB46_Y14_T11A], the phosphorylation enrichment was 0.428. In the case of DRLASYLDKVR [KRT10_Y160], the phosphorylation enrichment is reported as 0.378. LLSVAYQNVVG [YWHAG_Y49_K50Q] gave a phosphorylation enrichment of 0.757. Sequence MALDIYRASYY [ALK_Y1278_R1275L] has a phosphorylation enrichment of 0.974. Sequence KIIRWYVSSEG [ANK2_Y3907_R3906W] has a phosphorylation enrichment of 0.51. For LEAVSYSSPFA [RNLS_Y190_R193P_YF], the phosphorylation enrichment was 0.791. AAVDTVCRHNF [HLA-DRB1_Y107_Y107V_YF] was tested, and the phosphorylation enrichment was 0.398. RRIHSYRGYLW [VHL_Y112_H115Y] was tested, and the phosphorylation enrichment was 0.551. LLDGEYFTLQI [TP53_Y327_P322L] was tested, and the phosphorylation enrichment was 3.2. Sequence RVNSAYQDKVS [ACAN_Y100] has a phosphorylation enrichment of 0.517. Work on LGGAMYFLEAE [PKHD1_Y452_YF] yielded a phosphorylation enrichment of 1.13. NPSFNYEIVNR [DYNC1H1_Y3379_YF] gave a phosphorylation enrichment of 0.445. In the case of HFEFKYVINAI [MAOA_Y268_C266F_YF], the phosphorylation enrichment is reported as 0.441. QDGYSYLSRQM [LDLR_Y847_P848L] showed a phosphorylation enrichment of 0.305. TEQDPYNSIVR [MMUT_Y364_N366S] was tested, and the phosphorylation enrichment was 0.494. In the case of YTHSDYQYGQR [PKP2_Y166_S169G], the phosphorylation enrichment is reported as 0.476. LITILYIGFLG [KCNQ1_Y267_T265I] was tested, and the phosphorylation enrichment was 0.809.

Reference: the supplement of paper PMC10065799, “High-throughput profiling of sequence recognition by tyrosine kinases and SH2 domains using bacterial peptide display” (eLife, 2023)
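For SH2 binding enrichment of the phosphorylated peptide, bacterial display in this document: peptide library displayed on the E. coli surface as eCPX fusions, selected cells deep-sequenced, score is each peptide's frequency after selection divided by its frequency in the input.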
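For phosphorylation enrichment, bacterial display in this document: 11-residue human phosphosite peptides and single-mutation variants displayed on the E. coli surface, counted by deep sequencing, each peptide's frequency after selection divided by its frequency in the unselected input library; frequency after pTyr selection over input frequency; kinase dosed for 20-30% of maximal phosphorylation in three min.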
